# Reference: the supplement of paper PMC12764529
# ± gives the half width of the 95% confidence interval.
# Tests used:
# [1] = folding stability dG unfold (combined trypsin and chymotrypsin); higher = more stable
# Method: (§1)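 Folding stability of de novo designed mini-proteins (<80 aa, no Cys; designed by TrROS, TrMRF, ProteinMPNN and the joint model) was measured by cDNA display proteolysis with trypsin and chymotrypsin. Each protease was used at 11 concentrations in a threefold dilution series plus a no-protease condition. K50 was inferred by Bayesian fitting of sequencing counts, and dG unfold was derived against a sequence-predicted unfolded-state K50 (Tsuboyama et al. method). Sequences shown include variable-length N-terminal GS-type padding (SAGGSAGG...) inside a display construct carrying a PA tag. Rows were kept only if the AF2 dimer inter-PAE was >15, to exclude likely homo-oligomers.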
# [2] = folding stability dG unfold from chymotrypsin proteolysis; higher = more stable
# Method: as §1
Sequence,folding stability dG unfold [1] [kJ/mol],folding stability dG unfold [2] [kJ/mol]
MPSVTLPVTLVLDTRRPDGRPLTPEQVRALAEAAVRELAEATGVDVEADVTVTPLGPEGRAVVDVVVTVRPS [r1_231_TrMRF],0.841 ± 0.586,3.12 ± 0.418
MTEKKEESLGEKKRITTTKPQEDGNPVVTERIIDPNGTIEKVIVKKSSPNKPTTEELPPFSTSNKEIVEKLS [r1_301_JUSTAS],-3.44 ± 1.67,-2.89 ± 0.586
MTTETLEEEEIPEEGIRIETVRTTDASGKPSTETVVTYEEVPLEPENTAPPVKFDDKGKRYNPGIGLEGLDS [r1_270_JUSTAS],< -4.18,-2.78 ± 1
NIRFPDGREIEIPPEPGEEYEIMLPNGPEIKIKKIKYENGEPTIEIERKDGGKKEHEMPPNQPDQILDAIRS [r1_66_TrROS],0.133 ± 1.21,1.76 ± 0.213
NYRVEIDDMELFPAPPGQEIRIPLKVEDDGQEHELEEIQVNPDDGYITMKVKIEPDGEPKEFTITIPIPPGS [r1_47_TrROS],–,0.662 ± 2.18
RTISIDEIREKLGMDPDDLKNMPMEEIADEIRDELPPGRAKGVKISPNEDDGMWTITVKYKNGRPVEITIDS [r1_340_TrROS],0.652 ± 1.55,2.81 ± 0.669
SADTLTVSDLMHKLMEEERKKNPEPWSPEDMQEWAKTAARKLADKEGIPIKDVEVEPTDGYPSITVKVPSAG [r14_147_TrROS],< -4.18,-2.89 ± 3.05
SAGATESETFALPGGEEVTVTTTYTPLPGDALRTTVTTWTTTLGPSGPAVTTATTTTTYPPELAAAGASAGG [r19_63_JUSTAS],-3.38 ± 1,0.162 ± 0.586
SAGAVSTFENSNPSISLEELKEKIEEKLGIELVELKKVEDVPGGLKYEIVVPKIKGEKPFSAEEIAKLLSAG [r5_550_JUSTAS],-1.82 ± 2.34,-0.149 ± 2.09
SAGDISPSDPVTVRVEVEKDPNSKSTLVRVDEETPTGRRLERRIPADGPVVVTEREPASGATRVTVEPASAG [r5_55_JUSTAS],-2.36 ± 0.46,0.0377 ± 0.297
SAGDWIREAIKKAGYDNVEIEEIQPNPNGGVSIVIQPSPGMPREQQRRAQEEIVDALREESPDFKIHIHSAG [r5_101_TrROS],0.804 ± 1.09,2.44 ± 0.364
SAGEGSRSPGVVLHVTTPTEPLVVREPVAPDEDPEAVLERLAAEVRAALGPDTTVSGEVLSPAELARAASAG [r5_583_JUSTAS],-3.09 ± 0.962,-1.95 ± 0.753
SAGEVEKITLTIVVEDPNMTLEEILKKALEALGLKEEDVEVKIVSIKEETLPDGRKLTVIEVEITVPKPSAG [r5_528_TrROS_Hall],–,14.3 ± 1.09
SAGEYKVEEKDGKLYVTYPNGEKKEVEVKPAPPPVVTIKVKSVEELKALAEELNLEITEISEDTVVVKFSAG [r5_328_TrROS_Hall],-2.69 ± 2.59,0.334 ± 1.59
SAGGAGQRVVLSSDKSLEDLEKLREENPDVSIEVTEINKLEPVKPENGGLEEVPSEIVAELTPGERRSAGGS [r8_172_JUSTAS],-0.165 ± 0.318,1.68 ± 0.213
SAGGAIGPEEAERLAQEIADRLAAEFREAEPDVEVEVEAEVFPPEGVIRVRPRLPDGRLLAEVTFPVGSAGG [r13_247_TrMRF],0.365 ± 0.28,2.09 ± 0.172
SAGGMRFRVRLFRPGRWLPPREVEPGAEAALRELPADVPFVVIEFDDPRGRRRVFFRSPEELRRAVAASAGG [r13_299_TrMRF],–,1.59 ± 2.76
SAGGSAGGSAGGAEELLENGRLRIEWPNGRTHTIDLDDGKIEPPPGFPPDNIRRVEIVPPSAGGSAGGSAGG [r7_566_TrROS],–,1.86 ± 1
SAGGSAGGSAGGNIVDRLQERFPNFPPKSVDVKMNPNGNRSVDIKFDGPPEMRDALLELSAGGSAGGSAGGS [r10_1089_TrROS],–,0.535 ± 0.247
SAGGSAVKITVEEREIIVPPEEDPLAENNPGIVVKKKTVKYEKEMTPEEKEKFLKEIEEKTGIKIISAGGSA [r15_347_JUSTAS],–,-0.677 ± 1
SAGGSAVTAEWILDHMRDMGMPEEDVKIDDVQLEREPDKVVIRIEITMRHPNDGKQRRMDMEIPLPSAGGSA [r15_863_TrROS],–,-0.688 ± 1.42
SAGMMVLVRNKNGETVPLEDMTEEQLKNMDIEEVEILPPPEIKVEEEVKVDENGNLTVKKKIEIKIEFSAGG [r19_232_TrROS_Hall],< -4.18,–
SAGMPELVEFPFPIPPEFPDIPPETLAKLIAEELNEEEFSVEVKSYDPEKPIVTLTVTKDGKPVAEFTDSAG [r5_80_TrMRF],< -4.18,–
SAGMPVTTVTLYTTDPATGTPTATPGPISDVLALLKREGLPVEREEYDPSPQTHTVYSKGPGKDYIVAGSAG [r5_521_JUSTAS],< -4.18,–
SAGMTIPVTSPEEARQVAEELAPEVGKEVTIEEAPPSVSTDNLPSNAIVLVNPDSGVRYVATIKEPDHHSAG [r5_173_JUSTAS],< -4.18,–
SAGPEPIKIKILKMQPNPNGTPMIRVKVVPPDGKPGEIPIPQEMLKEGNLDDMTIDDIAEEFPGLKPVSAGG [r19_74_TrROS],< -4.18,–
SAGPFYVRMKIEVPRKTYDPEDGEPKQEKREIDIWFPMKSEEQARDHADKLAEELPPENVKITDIEPFSAGG [r19_209_TrROS],< -4.18,–

Sequence,folding stability dG unfold [1] [kJ/mol],folding stability dG unfold [2] [kJ/mol]
SAGPPNDVKPIEIPFKMENGSNFRAEIWRDPGDGKVFVPIEYPNPWHRKRMQNWARELAEEHGIDRVEPSAG [r5_99_TrROS],< -4.18,–
SAGQIRIEIEPNPNGKPKIRITMHNPDGPPREREIPIDPGETVSDIADEFFENGMPIRPGSTIEDLIESAGG [r19_263_TrROS],< -4.18,–
SAGSATFTRATTPLPEVTLSWEELEELVKDPNIDSISVHSPTADRTLPAPEGKITGPLAPDQTVTLVGSAGG [r19_152_JUSTAS],< -4.18,–
SAGSFEYEFENGSSNRVEVDPENKEVKVEYEPKEGKLIAALPEKGVVLVPIKDKKVEEAAKEVIEKLKKSAG [r5_447_TrMRF],< -4.18,–
SAGSFSVRLTLRAPDGTTETVSGPAAVAAAIAALPADETAESSVPGSSSSSTVTLPAGGTFSLSTLSSSSAG [r5_506_JUSTAS],< -4.18,–
SAGSMKLLILATSYPPDGSTTTKPIFGTEEDLKAAVEALPDGEKAATIIEVSEEGLKTIKTETRPPSLGSAG [r5_970_JUSTAS],< -4.18,–
SAGSYTVDVSYRVPVRLSPAGAVEVPVEVELKRYLPDGVPLGEEEIEEEEEKLAEEIAKELAEALAPLSAGG [r19_389_JUSTAS],< -4.18,–
SAKAKVVEIKEENGKVIIKIEVEDENGNKKTIEIELPKDDIEIVEVDEDKIVIYNKKTGKKITLDLKDLSAG [r14_947_TrROS_Hall],> 25.1,–
SAMKVIVKIKIYDKNGKLVKEIEIPAEILEKDPEKLKELAEKLAEELKKKGYKVEIELVEVVPVEEEEESAG [r14_972_TrROS_Hall],–,18.8 ± 1.72
SAMPPGAIVKVKIISKERRIDNELGVEVVGYTEKEEDVKVLEVKEPGEKVELKLEIPNLPEGSELELGFSAG [r14_412_TrMRF],< -4.18,–
SAMVVPVELEGPVGDLDELKEKTKKEVEEELGLPDDLENITVTVEKIEPLPDPEGKPVTTRIKLKITVKSAG [r14_736_JUSTAS],< -4.18,–
SAPDLGSGTLLTTESRAVTDPEGNTTWVTRPVVVPVEREYFVTDPETGEWAPLSTYDPATGTLHDPNHHSAG [r14_122_JUSTAS],< -4.18,–
SARLFTIRIQGPPEQLKDALQEEFDMEVNIEPEPNGSTTITFELPPNNYDRFEEALEQLPGFPIEIEPVSAG [r14_521_TrROS],< -4.18,–
SARYKRNPDGKPRREEPVPPKPPTIEIPIPFNMPPDDPEMMKRFAEMIADMLADEHGLPPNVPIHISMNSAG [r14_453_TrROS],< -4.18,–
SATLRDLIKELGFPMDIEHDGDSVKITMRNPDDPNPGQEQTFEIPPPNGKPLKFKIRMRNNGIQEIEPESAG [r14_401_TrROS],< -4.18,–
SATVTVETTLSDVDTLLAAAEAAGWAVTRTQEPSSPLRRATITAPLPDGTAAPVTVTVDPASGRAVLVGSAG [r14_169_JUSTAS],< -4.18,–
SKKFQIYNPDEGQPFQIEVDPEDGKVTVEWPNGEEEEAPVKDIEIDPGHGWIKIKHPGKEVTIRIPPDMFSA [r9_325_TrROS],–,0.0361 ± 1.84
SKVDIDVERDPGNGHYEYTVRNPNNGYDIKVRIADMDPEHGPIQVEIEPLDDGKKVHYPMPWDDIKDLIKSA [r9_1221_TrROS],< -4.18,–
SMPYLVRVLAELPDGELLGEAEAEVLPGEELVFSDPLPVRVRAVIYDPETDEPREVEADGRVGVLVVPVESA [r9_272_TrMRF],< -4.18,–
SMTYTVTKESSVSPLPDGSPVTSTTTTVTAPTEPVTVTTSTSVTPLSTGTSTTTSTTTTTVPPDDPLAASSA [r9_34_JUSTAS],< -4.18,–
SMYYVATVIRKKKDGGPYLGPEVRIVESPEEAEEIALEPAPERDYVVELKVEEVPLEELENPEKIKELLESA [r9_864_TrMRF],< -4.18,–
SNFYFTIEIERPDPNGEEKKIEITIPMERINQELQEEHGMESPQEAQEYFAKEIAEKFDENGYKVKIEPFSA [r9_868_TrROS],-1.32 ± 2.18,–
SPAIVLATSDPSTRRRTVFVAQSHPPGPAVPDLGFDIPIGDNLYLGASISVSPSGPVNIDSIIVGPPDSLSA [r9_780_TrMRF],< -4.18,–
SPKIKITEVEPNPGNMEKRTIELPNRPITLYWPPENGYYRVKIEDPDNNKERQIMVPPGQPPEEIAKDLLSA [r9_522_TrROS],< -4.18,–
SSFKLYKRPDGSPYLTAPVPEKNLKSALDPSTGVPYIATTPGGELGALSLLADSLEELLKLPPLTFTKPGSA [r9_205_JUSTAS],< -4.18,–
SSFKTKITILEERELEPVPDRNGTPNPVRLVTIAVTNLGPESVSPEVVEKVKKEVEEKFKEEGIPVEIKDES [r1_305_JUSTAS],< -4.18,–
SSVSFDPATGTTTVTTTTPTGPDSPVLTTTTTTLTTNPDGTVTTTTTTTTTTVAPAAPLLTPANLALRAALS [r1_4_JUSTAS],< -4.18,–
